The test system of one data set is Panc-1. Briefly: Binding to Panc-1 cells by flow cytometry with Cy3-labeled aptamers (KD). More on the design: species or system human. The conditions noted are these: Cy3 labeled aptamers 15.6-500 nM, MFI, one site binding non-linear regression; read-out: binding affinity (Kd). How it is done:
Aptamer binding and uptake was also assessed by flow cytometry. For the assay, cells were detached using a non-enzymatic cell dissociation solution, washed with PBS and suspended in binding buffer. Next, Cy3-labeled aptamers were added and incubated for 1 hours at 37° C. The binding of individual aptamers for the starting pool as a control to pancreatic cancer cells was performed in triplicate. Flow cytometry was performed on a Cyan (Beckman Coulter counter) and Fortessa. The data were analyzed with FlowJo software.
To determine the binding affinity of aptamers to Panc-1, the median fluorescence intensity (MFI) of each concentrations was determined and subtracted the mean fluorescence background of controls from the corresponding MFI of aptamers described by Sefah et al^53. The dissociation constants were calculated using one site binding non-linear curve regression with a Graph Pad Prism (GraphPad Software, La Jolla, Calif., USA).
(A flow cytometer gives signals particle by particle.)

The subject of data set [1] is Non pancreatic lines including Huh7, HepG2, MCF7 and PC3 cells. Briefly: Confocal internalization / cell binding in non pancreatic cancer lines. The conditions noted are these: Cy3-labeled RNA, liver, breast and prostate cancer lines. It is filed as cell-based. Here is the method: (§1) For the internalization, the cells were grown in 35 mm glass bottom dishes (MatTek, Ashland, Mass., USA) with seeding at 1×10^5 cells in medium for 24 hrs. The RNAs were labeled with Cy3 using the Cy3 Silencer siRNA labeling kit (Ambion, Tex., USA.). Cy3-labeled RNAs at 100 nM were added to the cells and incubated for 1 hour. The images were taken using a Zeiss LSM 510 Meta Inverted 2 photon confocal microscope system using a C-Apo 40×/1.2 NA Water immersion objective.

For data set [2], the system named is pancreatic cell lines PANC-1, AsPC-1, MIA PaCa and Capan-1. Briefly: Live cell confocal internalization in pancreatic cancer cell lines. The data set is classed as cell-based, human. Conditions: Cy3-labeled RNA 100 nM. How it is done: as §1
Another data set concerns pancreatic cancer. Conditions: cited from earlier work.
For data set [3], the system named is normal tissues such as liver, spleen, and kidney; T and B cells. Nature of the data set: Staining of other normal tissues and T and B cells. On the set-up: species or system human. Conditions: Cy3 labeled aptamer. Here is the method:
FIG. 2A-2B. Histology (FIG. 2A) The representative images by histopathological screen in normal tissues. The samples were stained with Cy3 labeled aptamer P1 and P19 respectively. The sample sections were then examined under microscope at 100× magnification. Cy3-labeled RNA. (FIG. 2B) Flow cytometry analysis of P19 and P1 in T and B cells. Cy3-labeled RNAs were tested for binding to T and B cell isolated from human blood.

In another data set the target is T1, cell membrane proteins (Homo sapiens, UniProt P38646).
T1 construct: cell membrane proteins were retrieved by biotinylated aptamers; endogenous in cells
T1 sequence (P38646 47-679): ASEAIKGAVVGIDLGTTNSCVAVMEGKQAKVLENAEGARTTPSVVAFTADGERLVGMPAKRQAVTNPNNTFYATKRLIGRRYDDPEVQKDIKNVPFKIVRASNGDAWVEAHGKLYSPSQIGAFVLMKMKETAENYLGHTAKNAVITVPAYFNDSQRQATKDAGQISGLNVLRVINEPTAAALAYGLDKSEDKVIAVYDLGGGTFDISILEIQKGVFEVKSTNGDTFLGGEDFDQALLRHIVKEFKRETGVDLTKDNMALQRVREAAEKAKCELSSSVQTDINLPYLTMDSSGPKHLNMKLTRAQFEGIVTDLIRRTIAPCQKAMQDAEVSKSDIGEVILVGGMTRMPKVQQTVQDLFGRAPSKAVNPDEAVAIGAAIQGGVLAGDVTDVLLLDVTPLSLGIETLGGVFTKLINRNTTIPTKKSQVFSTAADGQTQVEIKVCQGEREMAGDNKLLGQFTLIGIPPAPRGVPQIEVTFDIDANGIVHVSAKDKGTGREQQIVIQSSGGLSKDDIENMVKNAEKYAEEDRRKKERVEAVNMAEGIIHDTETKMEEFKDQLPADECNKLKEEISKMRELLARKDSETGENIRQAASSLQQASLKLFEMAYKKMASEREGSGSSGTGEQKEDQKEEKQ
Briefly: Retrieval of cell membrane proteins by biotinylated aptamers and MASS-SPEC. Conditions: peptide matching fingerprinting. The text has this: (§2) P1 and P19 were labeled with biotin at the 3′ end. Target membrane proteins were isolated following procedures described by Daniels et al^26 or extracted by ProteoExtract Native Membrane protein Extraction Kit (Calbiochem). Agilent 6520 Q-TOF mass spectrometer used to identify aptamer retrieved proteins. A BIAcore T100 (GE Healthcare, Uppsala, Sweden) was used to measure binding by surface plasmon resonance (SPR) technique. BIAevaluation software (GE Healthcare) was used for analysis. Gel shift assay was also performed to validate the target ligand binding.

The test system of data set [4] is human pancreatic cancer and normal pancreas tissue specimens. Nature of the data set: Histopathology staining with Cy3 labeled aptamers, aptamer score. The conditions noted are these: for No. of Patients, Low (<7) staining / No. of Patients, Medium (>7 and <14) staining / No. of Patients, High (>14 and <20) staining: 72 patient samples; for No. of Patients, Low (<7) staining: aptamer score <7; for No. of Patients, Medium (>7 and <14) staining: aptamer score >7 and <14; for No. of Patients, High (>14 and <20) staining: aptamer score >14 and <20; for recognition of pancreatic cancer versus normal pancreas tissues: Cy3 labeled aptamer, histopathology; for Survival Period, High (>14 and <20) staining group / Survival Period, Low (<7) staining group / Survival Period, Medium (>7 and <14) staining group: Table 5, Mean ± SD. How it is done:
The samples were stained by aptamer P1 and P19 respectively. We linked P1 and P19 with Cy3 as marker and DAPI stating was performed for cell nuclei as background. The sample sections were then examined under microscope at 100× magnification, and the aptamer content in each slide of pancreatic cancer was determined by measuring the average of positive-stained particle numbers in five independent fields randomly.
A total of 72 patients (45 male and 27 female) of pancreatic adenocarcinoma had undergone surgical intervention between January 2008 and December 2010 in National Taiwan University Hospital. Diagnosis was settled by pathologic analysis of specimen. All of the enrolled patients fulfilled the informed consent to receive the procedure, and this study was Institutional Review Board approved of NTUH.

In data set [5] the test system is gemcitabine-resistant ASPC-1 engrafted mice. Briefly: Gemcitabine resistant AsPC-1 tumor in NOD/SCID mice. The data set is classed as in vivo. Conditions: tail vein, 4 injections at days 1, 3, 5, 7, sacrificed day 9. Here is the method:
For gemcitabine resistant tumour test, twelve 5-weeks-old female NOD/SCID mice were injected subcutaneously (S.C.) on the flank with 2.8×10^6 AsPC-1 pancreatic cancer cells in 0.05 ml PBS with 0.15 ml matrigel. After 3 weeks, mice were divided into four groups. One group served as untreated controls and the others injected with P1 (10 ug per injection), P19 (10 ug per injection) and P1 combined with P19 (5 ug of P1 with 5 ug of P19 per injection). Aptamer were injected through tail vein. Animals were injected 4 times at days 1, 3, 5, and 7, and were sacrificed at day 9.
To test chemoresistant tumor regression in mice, twelve 5-weeks-old female NOD/SCID mice were injected subcutaneously (S.C.) on the flank with 2.8×10^6 ASPC-1 gemcitabine resistant pancreatic cancer cells in 0.05 ml PBS with 0.15 ml matrigel. After 3 weeks, mice were divided into four groups. One group served as untreated controls and the others injected with P1, P19 and P1 combined with P19. Aptamer were injected through tail vein. Animals were injected 4 times at days 1, 3, 5, and 7, and were sacrificed at day 9.

Data set [6] concerns the target T2, mortalin (mitochondrial Hsp70) (Homo sapiens, UniProt P38646). Briefly: Gel shift assay. The data set is classed as binding. Conditions: native PAGE.
Description: as §2
(Mobility shift assays separate free from complexed probe on a gel.)

For data set [7], the target named is T2, mortalin (mitochondrial Hsp70). Briefly: Surface plasmon resonance (BIAcore T100). The data set is classed as binding. The conditions noted are these: aptamer biotin-labeled at 3′ end immobilized on SA chip.
Description: as §2
Background: In SPR one partner is held on a chip, and binding of the other changes the refractive index at the surface.

In another data set the test system is Panc-1 cells. Nature of the data set: Competition of Cy3 labeled P19 with unlabeled clones, confocal. It is filed as binding, human. Conditions: 200 nM Cy3 labeled P19, 1 μM unlabeled clone. Here is the method: For competition assays, 200 nM of Cy3 labeled P19 aptamer was used to compete with either unlabeled clones (1 μM). The fluorescence intensity was quantified in the presence of increasing amounts of competitors using confocal microscopy and analyzed statistically. One-way ANOVA was used for statistical significant analysis (P<0.05).

T2 sequence (P38646 47-679): as above

Broadly, the Kd is the free concentration of one partner at which half of the binding sites on the other are occupied at equilibrium, for simple one-to-one binding. As to “truncated P19: P19 truncated to 28mer including the common motif GAAUGCCC, SEQ ID NO:1 (CUCAAUGGCGAAUGCCCGCCUAAUAGGG; listed as RNA, chemistry not fully specified)”, the Kd with Panc-1 is 8.77 nM. Besides, in data set [1], the “internalization / binding in non pancreatic cancer lines” value is recorded as “negative reaction”. In addition, the “internalization in pancreatic cancer cells” value in [2] was “internalized into Panc-1 and AsPC-1 cells”.
For the molecule `C#Cc1cccc(Nc2ncnc3cc(OCCOC)c(OCCOC)cc23)c1` [erlotinib], the “median added to overall survival” value in the data set with pancreatic cancer (addition of erlotinib, randomized study) is 11 days. Moreover, the survival benefit entry in the data set with pancreatic cancer (phase III trial of erlotinib with gemcitabine, advanced disease) is listed as “marginal survival benefit”.

B1: P1: 2′F RNA aptamer selected by whole cell SELEX on Panc-1, SEQ ID NO:4 (nucleic acid)
chain: GGGAGACAAGAAUAAACGCUCAAUGCGCUGAAUGCCCAGCCGUGAAAGCGUCGAUUUCCAUCCUUCGACAGGAGGCUCACAACAGGC
modifications: all phosphodiester, sugars by position and methylation of C not given here; 2'-fluoro modified RNA
Take B1: in the data set with Panc-1, the Kd was determined as 2.2 nM. In addition, in data set [3], the “staining of other normal tissues including T and B cells” value is listed as “negative staining”. Besides, the “internalization / binding in non pancreatic cancer lines” value in [1] is on record as “No Cy3 signal was observed”. The target ligand identified entry with cell membrane proteins is “mitochondrial Hsp70 which is mortalin”. Also, in data set [2], the “internalization in pancreatic cancer cells” value is “punctate regions of Cy3 labeling”. Also, in [4], the “survival period, medium level group” value was found to be 15.9±3.17 months; the “No. of Patients, Low (<7) staining” value was 3; the “No. of Patients, Medium (>7 and <14) staining” value came to 26; the “No. of Patients, High (>14 and <20) staining” value was 43. Further, in data set [4], the “recognition of pancreatic cancer versus normal pancreas tissues” value was “recognized pancreatic cancer tissues specifically, not normal pancreas tissues”; the “Survival Period, High (>14 and <20) staining group” value was found to be 13.1 ± 4.36; the “Survival Period, Low (<7) staining group” value came out at 21.0 ± 2.64; the “Survival Period, Medium (>7 and <14) staining group” value was determined as 15.9 ± 3.17. The “anti-tumor effect of aptamers only (tumor size)” value in data set [5] is reported as “anti-tumor effects in gemcitabine resistance tumour cells significantly”. The gel shift entry in [6] is “shifted band was observed”. In data set [7], the “binding by SPR” value is given as “bound to the mortalin”.

B2: P19: 2′F RNA aptamer selected by whole cell SELEX on Panc-1, SEQ ID NO:2 (nucleic acid)
chain: GGGAGACAAGAAUAAACGCUCAAUGGCGAAUGCCCGCCUAAUAGGGCGUUAUGACUUGUUGAGUUCGACAGGAGGCUCACAACAGGC
modifications: all phosphodiester, sugars by position and methylation of C not given here; 2'-fluoro modified RNA
Turning to B2, the dissociation constant Kd in the data set on Panc-1 came out at 13.1 nM. For the same molecule, the “staining of other normal tissues including T and B cells” value in data set [3] is “negative staining”. Further, the “internalization / binding in non pancreatic cancer lines” value in data set [1] was “No Cy3 signal was observed”. For the same molecule, the target ligand identified entry with cell membrane proteins is on record as “mitochondrial Hsp70 which is mortalin”. The “internalization in pancreatic cancer cells” value in data set [2] is reported as “punctate regions of Cy3 labeling”. Further, the “fluorescence intensity of labeled P19 in presence of unlabeled competitor” value in the data set on Panc-1 cells was “significantly decreased”. Moreover, in [4], the “No. of Patients, Low (<7) staining” value worked out at 3; the “No. of Patients, Medium (>7 and <14) staining” value is on record as 26; the “No. of Patients, High (>14 and <20) staining” value is on record as 43; the “recognition of pancreatic cancer versus normal pancreas tissues” value was “recognized pancreatic cancer tissues specifically, not normal pancreas tissues”. In addition, in data set [4], the “Survival Period, High (>14 and <20) staining group” value worked out at 13.0 ± 4.29; the “Survival Period, Low (<7) staining group” value is 21.0 ± 2.64; the “Survival Period, Medium (>7 and <14) staining group” value is on record as 15.6 ± 3.30. In addition, the “anti-tumor effect of aptamers only (tumor size)” value in data set [5] is on record as “anti-tumor effects in gemcitabine resistance tumour cells significantly”. For the same molecule, in data set [6], the gel shift entry was “shifted band was observed”. Also, the “binding by SPR” value in data set [7] is listed as “bound to the mortalin”.
